Assay results published in paper PMC9122904, “Insights into the client protein release mechanism of the ATP-independent chaperone Spy” (Nature Communications, 2022).

Target: T1, Spy D26A (UniProt P77754 24-161, D26A)
T1 construct: source: E. coli BL21 (DE3), purified (Ni-NTA, cation exchange, SEC); not shown: His6, N-terminal, cleaved; SUMO, N-terminal, cleaved
T1 sequence (looked up): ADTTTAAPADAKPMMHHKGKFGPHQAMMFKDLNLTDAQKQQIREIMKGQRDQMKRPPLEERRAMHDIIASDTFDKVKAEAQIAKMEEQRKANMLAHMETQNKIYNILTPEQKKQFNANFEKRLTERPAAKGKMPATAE
Assay: BLI; Octet RED96; client biotinylated and loaded on streptavidin sensors; Spy or Spy variant in solution at 0.25, 0.5, 1, 1.5 and 2 μM; 40 mM HEPES, 150 mM NaCl, pH 7.5; Kd calculated as koff/kon
Conditions: both partners purified

B1: Im7 H40W L53A I54A (natural protein)
chain: MELKNSISDYTEAEFVQLLKEIEKENVAATDDVLDVLLEWFVKITEHPDGTDAAYYPSDNRDDSPEGIVKEIKEWRAANGKPGFKQG
modifications: biotin (EZ-link NHS-biotin, 1:1 molar ratio of biotin to protein)
notes: Im7 (colicin E7 immunity protein) with H40W L53A I54A; Spy was made with an N-terminal His6-SUMO tag that was cleaved; also called Im7AAW; partially folded client; source: purified by a similar procedure to Spy
Kd: 274 nM
